Numbered stars: 1 amine (or outer) side, 2 acyl side, 3 side chain; on linkers, the order of the positions; unused ones are H or OH. Square brackets hold non-standard residues; d marks the D form. Peptide text beside a SMILES is read from it. * marks the point of attachment. DOTA = O=C(O)CN1CCN(CC(=O)O)CCN(CC(=O)*)CCN(CC(=O)O)CC1; Cha = N[C@@H](CC1CCCCC1)C(=O)O; X1 = O=C(CCC(=O)[*:2])CN[*:1]; Nle = CCCC[C@H](N)C(=O)O
Experiments:
[1] = type: physicochemical
Method: For lipophilicity determination, each HPLC-purified radiopeptide (~ 20 μL, ∼ 25 μCi) was added into a glass tube containing an equal volume mixture of n-octanol and water (1 mL each). The samples were vigorously vortexed for 5 min and subsequently centrifuged (5000 rpm, 5 min) to yield two immiscible layers. Duplicate samples (100 μL) from each layer were carefully taken (to avoid cross-contamination between the layers) for radioactivity measurement using a γ-counter. Partition coefficient was determined by the function: partition coefficient = Log10 (radioactivity in octanol layer/radioactivity in aqueous layer).

[2] = molecular target: T1, BN/GRP receptor-positive MCF7 human breast cancer cells (Homo sapiens, UniProt P30550); assay: Saturation binding assay on MCF7 cells; settings: n = 3-5 experiments
T1 construct: BN/GRP receptor-positive MDA-MB-231, MCF7, T47D human breast cancer, and PC3 human prostate cancer lines; host or cells: MDA-MB-231, MCF7, T47D (human breast cancer), PC3 (human prostate cancer); intact cells
Method: (§1) The cell binding of ^68Ga-radiolabeled peptides into BN/GRP receptor-positive MDA-MB-231, MCF7, T47D human breast cancer, and PC3 human prostate cancer lines (American Type Culture Collection, Rockville, MD, USA) was performed according to the method described previously. In brief, ∼ 300,000 cells (in 300 μL in low-serum media) were incubated with various amounts of radiopeptides, ranging between 0.1 and 25 nM of peptide (prepared from the serial dilutions of HPLC-purified radiopeptides), in duplicate for 60 min at room temperature. The initial concentrations of ^68Ga-labeled peptides were determined according to a well-established HPLC technique with simultaneous detection by UV absorbance. As the amount of BN peptide in the reaction mixture was too small to be detected by UV absorption at 220 nm, the radioactive peptide chromatograms from the HPLC analysis were compared (with UV chromatograms) with those of known concentrations of the corresponding nonradioactive peptides for the mass determination. Incubation was terminated by dilution with cold saline (300 μL) and the cells were pelleted by centrifugation. The cell pellets was then rapidly washed with cold saline to remove any unbound peptide and centrifuged to collect supernatants. Radioactivity in the cell pellet and the washings was measured in a γ-counter. Non-specific binding was determined in the presence of ~ 200-fold molar excess of unlabeled BN peptide. Specific binding is calculated by subtracting the non-specifically bound radioactivity from that of the total binding. The dissociation constant (Kd) was calculated using a plot of cell bound activity versus the concentration of the radioligand using GraphPad Prism software (GraphPad Software Inc., San Diego, CA, USA).

[3] = molecular target: T2, BN/GRP receptor-positive MDA-MB-231 human breast cancer cells (Homo sapiens, UniProt P30550); assay: Saturation binding assay on MDA-MB-231 cells; settings: n = 3-5 experiments
T2 construct: BN/GRP receptor-positive MDA-MB-231, MCF7, T47D human breast cancer, and PC3 human prostate cancer lines; host or cells: MDA-MB-231, MCF7, T47D (human breast cancer), PC3 (human prostate cancer); intact cells
Method: as §1

[4] = molecular target: T3, BN/GRP receptor-positive T47D human breast cancer cells (Homo sapiens, UniProt P30550); assay: Saturation binding assay on T47D cells; settings: n = 3-5 experiments
T3 construct: BN/GRP receptor-positive MDA-MB-231, MCF7, T47D human breast cancer, and PC3 human prostate cancer lines; host or cells: MDA-MB-231, MCF7, T47D (human breast cancer), PC3 (human prostate cancer); intact cells
Method: as §1

in vivo = type: in vivo, nude mice; settings: female, nude, mouse, in vivo, total radioactivity
Procedure, shortened: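 Female mice bore subcutaneous left-thigh xenografts of ~5 million MDA-MB-231 cells in PBS, grown 4-6 weeks to 200-300 mg. Animals received 20-30 μCi of 68Ga-labelled peptide and were sacrificed at set time points; tumour and organ uptake measured by γ-counting.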

[5] = Radio-HPLC retention time as reflection of lipophilicity; type: physicochemical; settings: chromatographic, econosphere C18 (10 μm, 250 × 4.6 mm), 0.1% TFA water/acetonitrile, 5 to 95% B over 30 min, 1.1 mL/min; radio detection; used as reflection of lipophilicity
Method: The HPLC analysis and purification of the peptides were performed on a Shimadzu HPLC system using econosphere C18 reversed-phase column (10 μm, 250 × 4.6 mm). For all HPLC experiments, a gradient system of 0.1% (v/v) TFA in water (solvent A) and 0.1% (v/v) TFA in acetonitrile (solvent B) at a flow rate of 1.1 mL/min was used. The HPLC gradient began with a solvent composition of 95% A and 5% B from 0 to 2.5 min followed by a linear gradient of 95% A and 5% B to 5% A and 95% B over 30 min. The gradient remained at this position for 3 min before switching back to 95% A and 5% B for another 7 min. The major peak isolated and the acetonitrile was then slowly evaporated under a stream of nitrogen gas. Radiochemical purity was estimated by evaluating radioactivity peaks eluted for each ^68Ga-labeled peptide from the HPLC column and calculating the area under the peak (ROI). The main peak of each radiopeptide was isolated and reconstituted in sterile saline for in vitro and in vivo experiments. Radiolabeling of DOTA-coupled BN peptides with ^68Ga was accomplished simply by mixing ~ 20 μg BN peptide with sodium acetate buffer and ^68GaCl3 followed by heating to complete the labeling reaction. By this facile method, a high and reproducible radiolabeling of peptides with ^68Ga was achieved (up to 95%), with a specific radioactivity of greater than 250 Ci/mmol. […] A radiolabeling efficiency of greater than 90% was obtained in all cases, and it ranged between 90 and 95%. […] RP-HPLC retention times of the major peaks, ranging from 18.3 to 20.3 min, reflected slightly variable lipophilicity of these ^68Ga-complexes (Table 1).

[6] = ~300,000 cells, 0.1-25 nM radiopeptide, 60 min, room temperature, mean ± SD
[7] = Radioactivity in Urine + bladder
[8] = Uptake in Intestines (measured without their contents)

With `CCCC[C@H](NC(=O)[C@H](Cc1c[nH]cn1)NC(=O)[C@H](CC1CCCCC1)NC(=O)[C@@H](NC(=O)[C@H](C)NC(=O)[C@H](Cc1c[nH]c2ccccc12)NC(=O)[C@H](CCC(N)=O)NC(=O)[C@H](CS)NC(=O)CNC(=O)CNC(=O)CCC(=O)CNC(=O)CN1CCN(CC(=O)O)CCN(CC(=O)O)CCN(CC(=O)O)CC1)C(C)C)C(=O)N[C@@H](CCSC)C(N)=O` [^68Ga-DOTA-ALA-BN Cyclen, metal not drawn] ({DOTA}-[X1]GGCQWAV[Cha]H[Nle]M-NH2) the “Log P (octanol/water)” value [1] was “− 0.80 ± 0.05”, the “Bmax (apparent number of binding sites per cell)” value ([2]; SD < 15%) was 2.11 × 10^5 sites/cell and the Kd [2, 6] was 13.7 ± 2.32 nM. For the same molecule, the “Bmax (apparent number of binding sites per cell)” value ([3]; SD < 15%) was 1.02 × 10^5 sites/cell, the Kd [3, 6] was 15.1 ± 3.12 nM and the “Bmax (apparent number of binding sites per cell)” value ([4]; SD < 15%) was 9.90 × 10^4 sites/cell. For the same molecule, the Kd [4, 6] was 15.6 ± 3.47 nM, the dose excreted at 1 h (in vivo; [7]) was 62 ± 6.28% and the dose excreted at 2 h (in vivo; [7]) was 71 ± 9.68%. The tissue uptake at 1 h (in vivo; Uptake in Blood) was 0.79 ± 0.13 %ID/g, the tissue uptake at 2 h (in vivo; Uptake in Blood) was 0.37 ± 0.1 %ID/g and the tissue uptake at 1 h (in vivo; [8]) was 0.9 ± 0.12 %ID/g. It also gave a tissue uptake at 2 h (in vivo; [8]) of 0.6 ± 0.1 %ID/g, a tissue uptake at 1 h (in vivo; Uptake in Kidneys) of 5.94 ± 0.63 %ID/g and a tissue uptake at 2 h (in vivo; Uptake in Kidneys) of 3.2 ± 0.32 %ID/g. The tissue uptake at 1 h (in vivo; Uptake in Liver) was 1.4 ± 0.26 %ID/g, the tissue uptake at 2 h (in vivo; Uptake in Liver) was 1.12 ± 0.19 %ID/g and the tissue uptake at 2 h (in vivo; Uptake in Lungs) was 0.67 ± 0.13 %ID/g. It also gave a tissue uptake at 1 h (in vivo; Uptake in Muscle) of 0.3 ± 0.06 %ID/g, a tissue uptake at 2 h (in vivo; Uptake in Muscle) of 0.21 ± 0.03 %ID/g and a tissue uptake at 1 h (in vivo; Uptake in Pancreas) of 1.05 ± 0.12 %ID/g. The tissue uptake at 2 h (in vivo; Uptake in Pancreas) was 0.88 ± 0.11 %ID/g, the tissue uptake at 1 h (in vivo; Uptake in Spleen) was 0.26 ± 0.03 %ID/g and the tissue uptake at 1 h (in vivo; Uptake in Stomach) was 0.87 ± 0.19 %ID/g. For the same molecule, the tissue uptake at 2 h (in vivo; Uptake in Stomach) was 0.46 ± 0.05 %ID/g and the “Radio-HPLC tR” value [5] was 20.3 min.

Source: article PMC6733935, “A convenient and efficient total solid-phase synthesis of DOTA-functionalized tumor-targeting peptides for PET imaging of cancer” (EJNMMI Research, 2019)
